Test results: paper PMC7424725 (ACS Omega, 2020)

Columns and labels:
trypsin = target: T1, trypsin (Bos taurus, UniProt P00760); assay: Trypsin degradation assay; assay type: in vitro ADME
T1 sequence (P00760 24-246): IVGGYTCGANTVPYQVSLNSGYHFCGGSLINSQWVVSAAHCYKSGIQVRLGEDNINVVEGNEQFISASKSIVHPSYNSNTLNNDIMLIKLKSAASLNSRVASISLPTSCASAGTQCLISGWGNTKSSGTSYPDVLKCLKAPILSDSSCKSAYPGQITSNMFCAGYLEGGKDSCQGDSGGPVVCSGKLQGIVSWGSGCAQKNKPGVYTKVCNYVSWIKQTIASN

[1] = cited from earlier work

Substance | degradation half-life compared to HI + free Prg-SFTI 7 (trypsin; enzyme/substrate ratio 1:2) | degradation half-life compared to HI + free Prg-SFTI 7 (trypsin; enzyme/substrate ratio 1:4) | pKa of the lysine side-chain amine [1] | pKa of the two N-terminal amines (A1 and B1) [1]
SFTI-Triazolyl-(GQAP)49-GQEP-Cys(B29Nε-Acetyl desB30 Human Insulin) (bicyclic or more) [insulin-SFTI 9] | 3 times | twice as long | – | –
insulin | – | – | ~10 | ~7
